The target in assay [1] is human Bax (two-hybrid partner) (human, UniProt Q07812). Briefly: yeast two-hybrid.
In assay [2] the target is GAL4 DNA binding domain alone (vectors pMA424 or pAS1) (yeast, UniProt P04386). In words: yeast two-hybrid with the empty GAL4 DNA binding domain vectors.
Another assay addresses T1, yeast SNF1 protein bait (yeast, UniProt P06782).
T1 sequence: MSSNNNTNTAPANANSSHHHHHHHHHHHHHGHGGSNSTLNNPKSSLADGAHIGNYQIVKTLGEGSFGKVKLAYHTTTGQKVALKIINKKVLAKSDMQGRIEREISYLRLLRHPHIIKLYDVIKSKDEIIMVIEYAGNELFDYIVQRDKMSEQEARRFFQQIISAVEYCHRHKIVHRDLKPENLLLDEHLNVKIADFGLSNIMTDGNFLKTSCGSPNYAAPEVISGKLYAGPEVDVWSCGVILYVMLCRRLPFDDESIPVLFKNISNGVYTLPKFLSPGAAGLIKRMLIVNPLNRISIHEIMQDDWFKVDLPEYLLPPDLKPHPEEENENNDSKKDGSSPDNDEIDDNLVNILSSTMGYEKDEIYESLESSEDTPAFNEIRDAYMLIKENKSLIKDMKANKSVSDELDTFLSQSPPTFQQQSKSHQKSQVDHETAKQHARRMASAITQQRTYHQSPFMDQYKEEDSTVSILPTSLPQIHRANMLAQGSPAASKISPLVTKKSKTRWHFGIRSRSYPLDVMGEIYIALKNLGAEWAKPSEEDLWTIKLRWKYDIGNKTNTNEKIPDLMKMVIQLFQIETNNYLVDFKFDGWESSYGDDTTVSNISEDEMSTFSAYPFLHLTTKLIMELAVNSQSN
In words: yeast two-hybrid in strain Y153, X-gal (W = White). The method, then:
To determine the specificity of the two hybrid interaction, the three clones, 22, 44 and 91, were tested against baits expressing several heterologous proteins (Table 1). Among the various heterologous protein baits used, the adenovirus E3 11.6 kD protein is of particular interest as that protein localizes on the nuclear envelope region and has an internal hydrophobic domain like the E1B 19 kD protein (Scaria et al., 1992).
B = Blue W = White [@]Interactions with all baits except the yeast SNF1 protein were carried out in yeast Strain GGY1::171. Interaction with SNF1 was carried out in yeast strain Y153. *Colonies which appeared on -his, -trp, -leu plates after 6–8 days. Results of X-gal staining are indicated as B, blue; W, white; or ND, not done. The heterologous baits pLAM5 (human lamin) and pAS-SNF1 (yeast SNF1) have been described (Bartel et al., 1993, Durfee et al., 1993). Baits pHIV-1 Rev, pHIV-1 Tat, pHIV-1 Nef and pHTLV-1 Rex expressing the various HIV or HTLV regulating proteins were constructed as described herein and obtained from Cleta D'Sa Eipper and T. Subramanian, St. Louis University Medical Center, St. Louis, MO.

Results on two molecules are retold here after US5858678, “Apoptosis-regulating proteins” (St. Louis University, dated 1999).

B1: Nip1 (19K-interacting protein 1), protein coded by cDNA clone 22, tagged with the GAL4 activation domain (other)
chain: PQDVHVRICNQEIVKFDLEVKALIQDIRDCSGPLSALTELNTKVKEKFQQLRHRIQDLEQLAKEQDKESEKQLLLQEVENHKKQMLSNQASWRKANLTCKIAIDNLEKAELLQGGDLLRQRKTTKESLAQTSSTITESLMGISRMMAQQVQQSEEAMQSLVTSSRTILDANEEFKSMSGTIQLGRKLITKYNRRELTDKLLIFLALRLFLATVLYIVKKRLFPFL
Regarding B1, the binding result in assay [1] and in assay [2] was “no binding” throughout.

B2: Nip2 (19K-interacting protein 2), protein coded by cDNA clone 44, tagged with the GAL4 activation domain (other)
chain: MEGVELKEEWQDEDFPIPLPEDDSIEADILAITGPEDQPGSLEVNGNKVRKKLMAPDISLTLDPSDGSVLSDDLDESGEIDLDGLDTPSENSNEFEWEDDLPKPKTTEVIRKGSITEYTAAEEKEDGRRWRMFRIGEQDHRVDMKAIEPYKKVISHGGYYGDGLNAIVVFAVCFMPESSQPNYRYLMDNLFKYVIGTLELLVAENYMIVYLNGATTRRKMPSLGWLRKCYQQIDRRLRKNLKSLIIVHPSWFIRTLLAVTRPFISSKFSQKIRYVFNLAELAEL
For B2, the binding result (with yeast SNF1 protein bait; in assay [2]) was “no binding” throughout.
